Reference: the RNAGym collection of RNA variant scans (doi:10.1073/pnas.2313332121)

B1: TPR t1 (parent)
chain: GACCAAUCUGCCCUCAGAGCUCGAGAACAUCUUCGGAUGCAGAGGAGGCAGGCUUCGGUGGCGCGAUAGCGCCAACGUCCUCAACCUCCAAUGCAUCCCACCACAUGAUGAUGCCUGAAGAGCCUUGGUUUUUUG

Variants of: B1
Assay: polymerase ribozyme fitness, log enrichment relative to wild type (log ratio); higher = more active; in vitro selection for triplet polymerase activity
In short: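 Streptavidin-bead capture of gel-excised extended constructs, followed by RT-PCR, closed a single triplicate in vitro selection round. That round began by annealing PCR-built, transcribed mutant libraries of each subunit of a heterodimeric triplet polymerase ribozyme with a biotinylated primer, the partner subunit and triplets, then incubating them frozen at −7 °C. After Illumina sequencing of inputs and outputs, genotypes needed ≥10 input reads and ≥1 read per output. Fitness is the base-2 logarithm of genotype enrichment over wild-type enrichment, using inverse-variance-weighted replicate averages.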

Row | Variant | polymerase ribozyme fitness (log ratio)
1 | GACCACUCUGCCCUCAGAGCUCGAGAACAUCUUCGGAUGGAGAGGAGGCAGGCUUCGGUGGCGCGAUAGCGCCAACGUCCUCAACCUCCAAUGCCUCCCACCACAUGAUGAUGCCUGAAGAGCCUUGGUUUUUUG [A6C C40G A95C] | -5.15
2 | GACCACUCUGCCCUCAGAGCUCGAGAACAUCUUCGGAUGAAGAGGAGGCAGGGUUCGGUGGCGCGAUAGCGCCAACGUCCUCAACCUCCAAUGCAUCCUACCACAUGAAGAGGCCUGAAGAGCCUUGGUUUUUUG [A6C C40A C53G C99U U109A U112G] | -5.56
3 | GACCACUCUGCCUUCAGAGCUCGAGAACAUCUUCGGAUGCAGAGGAGGCAGGUUUCGGUGGCGCGAUAGCGCCAACGUCCUCAAUCUCCAAUGCAUCCCACCACUUGAUGAUGCCUGAAGAGCAUGGGUUUUUUG [A6C C13U C53U C85U A105U C124A U126G] | -3.62
4 | GACCACUUUGCCCUCAGAGCUCGAGAACAUCUUCGGAUGCAGAGGAGGCAGGCUUCGGUGGCGCGAUAGCGCCAACGUCCUCAACCUCUAAUGCAUCCCACCACAUGAUGAUGCCUGAAGAGCCUUGGUUUUUUG [A6C C8U C89U] | -0.206
5 | GACCACUCUGCCCUCAGAGCUCGAGAACAUCUUCGGAUGCAGAGGAGGCAGGCUUCGGUGGCGCGAUAGCGUCAACGUCCUCAACCUCCAAUGCAUCCCACCACAUGAUGAUGCCUGAAGAGCCUUGGUUUUUUG [A6C C72U] | -0.203
6 | GACCACUCUGCCCUCAGAGCUCGAGAACAUCUUCGGAUGCAGAGGAGGCAGGCUUCGGUGGCGCGAUAGCGACAACGUCCUCAACCUCCAAUGCAUCCCACCACAUGAUGAUGCCUGAAGAGCCUUGGUUUUUUG [A6C C72A] | -1.05
7 | GACCACUCUGUCCUCAGAGCUCGAGAACAUCUUCGGAUGCAGAGGAGGCAGGCUUCGGUGUCGCGAUAGCGCCAACGUCCUCAACCUCCAAUGCAUCCCACCACAUGAUGAUUCCUGAAGAGCCUUGGUUUUUUG [A6C C11U G61U G113U] | -4.99
8 | GACCACUCUGCCCUCAGAGCUCGAGAACAUCUUCGGAUGCAGAGGAGGCAGGAUUCGGUGGCGCGAUACCGCCAACGUCCUCAACCUCCAAUGCAUCCCACCACAUGAUGAUGCCUGAAAAGCCUUGGUUUUUUG [A6C C53A G69C G120A] | -1.04
9 | GACCACUCUGCCCUCAGAGCUCGAGAACUUCUUCGGAUGCAGAGGAGGCAGUUUUCGGUGGCUCGAUAGCGCCAACGUCCUCAACCUCCAAUGCAUCCCACCACAUGAUGAUGCCUGAAAAGUCUUGGUUUUUUG [A6C A29U G52U C53U G63U G120A C123U] | -3.79
10 | GACCACUCUGCCCUCAGAGCUCGAGAACAUCUUCGGAUGCUGGGGAGGCAGGCUUCUGUGGCGCGAUAGCGCCAACGUCCUCAACCUCCAAUGCAUCCCACCACAUGAUGAUGCCUGAAGAGCCUUGGUGUUUUG [A6C A41U A43G G57U U130G] | -3.78
11 | GACCACUUUGUCCUCAGAGCUCGAGAACAUCUUCGGAUGCAGAGGAGGCAGGCUUCGGUGGCGCGAUAUCGCCAACGUCCUCAACCUCCAAUGCAUCCCACCAGAUGAUGAUGCCUGAAGAGCCUUGGUUUUUUG [A6C C8U C11U G69U C104G] | -5.29
12 | GACCACUCUGCCCUCAGAGCUCGAGAACAUCUUCGGAUGCAGAGGAGGCAGGCUUGGGUGGCGCGAUAGCGCCAACGUCCUCAACCUCCAAUGCAUCCCACCACAUGAUGAUGCCUGAAGAGCCUUGGUUUUUUG [A6C C56G] | -0.703
13 | GACCACUCUGCCCUCAGAGCUCGAGAACAUCUUCGUAUGCAGAGGAGGCAAGCUUCGGUGGCGCGAUAGCGCCAACGUCCUCAACCUCCAAUGCAUCCCACCACAUGACGAUGCUUGAAGAGCCUUGGUUUUUUG [A6C G36U G51A U109C C115U] | -6.39
14 | GACCACUCUGCCCUCAGAGCUCGAGAACAUCUUCGGAUGCAGAGGAAGCAGGCUUCGGUGGCGCGAUAGCGCCAACGUCCUCAACCUCCAAUGCAUCCCACCACAUGAUGAUGCCUGAAGAGCCUUGGUUUUUUG [A6C G47A] | 0.295
15 | GACCACUCUACCAUCAGAGCUCGAGAACAUCUUCGGAUGCAGAGGAGGCAGGCUUCGGUGGCGCGAUAGCGCCAGCGUCCUCAACCUCCAAUGCAUCCCACCACAUGAUGAUGCCUGAAGAGCCGUGGUUUUUUG [A6C G10A C13A A75G U125G] | -0.518
16 | GACCACUCUGACCUCAGAGCUCGAGAACAUCUUCGGAUGCAGAGGAGGCAGGCUUCGGUGGCGCGAUAGCGCCAACGUCCUCAAUCUCCAAUGCAUCCCACCACAUGAUGAGGCCUGAAGAGCCUUGGUUUUUUG [A6C C11A C85U U112G] | -2.47
17 | GACCACUCUGCCCUCAGAGCUCGAGAACAUCUUCGGAUGCAGAGGAGGCAGGCUUCGGUGGCGCGAUAGCGCCAAAGUUCUCAACCUCCAAUGCAUCCCACCACAUGAUGAUGCCUGAAGAGCCUUGGUUUUUUG [A6C C76A C79U] | -0.8
18 | GACCACUCUGCCAUCAGAGCUCGAGAACAUCUUCGGAUGCAGAGGAGGCAGGCUUCGGUGGCGCGAUAGCGCCAACGUCCUCAACCUACAAUGCAUCCCACCACAUGAUGAUGCCUGAAGAGCCUUGGUUUUUUG [A6C C13A C88A] | -3.16
19 | GACCACUAUGCCCUCAGAGCUCGAGAACAUCUUCGGAUGCAGAGGAGGCAGGCUUCGGUGGCGCGAUAGCGCCAACGUCCUCAACCACCAAUGCAUCCCACCACAUGAUGAUGCCUGAAGAGCCUUGGUUUUUUG [A6C C8A U87A] | 0.391
20 | GACCACUCUGCCCUCAGAGCUCGAGAACAUCUUCGGAUGCAGAGGAGGCAGGCUUUGGUGGCGCGAUAGCGCCAACGUCCUCCACCUCCAAUGCAUCCCACCACAUGAUGAGGCCUGAAGAGCCUUGGUUUUUUG [A6C C56U A83C U112G] | -1.14
21 | GACCACUCUGCCCUCAGAGCUCGAGAACAUCUUCGGAUGCAGAGGAGGCAGGCUUCGGUGGCGCGAUAGCGCCAACGUCCUCAAGCUCCAAAGCAUCCCACCACAUGAUGAGGCCUGAAGAGCCUUGGUUUUUUG [A6C C85G U92A U112G] | -6.59
